Measurements: US12263245B2, “Immunomodulating treatments of body cavities” (UROGEN PHARMA LTD., priority 2023, dated 2025)

Legend:
CD4+ICOShi T cells = settings: patients treated systemically with two doses, cited from earlier work
[1] = parameters: species or system human; settings: in vivo
[2] = Aggregation stability of AGEN1884 drug product; format: physicochemical
Text: AGEN1884 is very stable to aggregation.

| Substance | Expression of CD4+ICOShi T cells (CD4+ICOShi T cells; blood samples) | Increase in levels of IFN-γ compared to untreated patients (CD4+ICOShi T cells) | Sustained concentration of zalifrelimab detected in urine overtime [1] | Increase in aggregate ([2]; all samples at all ambient temperatures analyzed (even elevated) through the nine-month time point) | Zalifrelimab aggregates after 24 hours ([2]; stored at about 2° C.-8° C. for at least 24 hours) |
| --- | --- | --- | --- | --- | --- |
| ipilimumab: an anti-CTLA-4 antibody | increased expression | approximately five-fold | – | – | – |
| zalifrelimab: recombinant, fully human immunoglobulin G1 monoclonal antibody that neutralizes the inhibitory effects of CTLA-4 | – | – | below the level of quantitation | no increase in aggregate was detected | substantially free from zalifrelimab aggregates |
